Patent publication US20100172896A1, “HMGB1 PROTEIN INHIBITORS AND/OR ANTAGONISTS FOR THE TREATMENT OF VASCULAR DISEASES” (BIO3 RESEARCH SRL, priority 2001, published 2010)

Tests used:
Format in all cases: cell-based
RSMC [1] = test: Immunofluorescence assay of RSMC morphology and actin cytoskeleton organization
Method: Samples of 15.000-20.000 RSMC, 20-40% confluence, 2 were seeded on glass coverslips in 2 cm wells and cultured for 24 hours in DMEM plus 10% FCS, washed with PBS, and cultured for another 24 hours in DMEM without FCS. RSMC were stimulated with HMGB1 100 ng/ml for increasing time intervals, from 5 to 120 minutes at 37 C. After stimulation, RSMC were fixed for 20 minutes at room temperature with a solution of 3% paraformaldehyde, 2% sucrose in PBS, pH 7.5, followed by three washes with PBS-BSA 0.2%. Cells were permeabilized with 20 mM Hepes pH 7.4, 300 mM saccharose, 50 mM NaCl, 3 mM MgCl2, 0.5% (v/v) Triton X-100 for 3 minutes at 4 C, and washed again three times with PBS-BSA 0.2%. Then, RSMC were incubated with PBS-BSA 2% for. 15 minutes at 37 C, with primary antibodies for 30 minutes at 37 C, washed three times with PBS-BSA 0.2%, and further incubated with PBS-BSA 2% for 15 minutes. At the end, cells were stained with secondary antibodies and/or phalloidin conjugated with rodamin for visualization of filamentous actin; in some cases, DAPI (4′,6-diamidino-2-phenilindolo, Roche) was used to label the nucleus.
After all the subsequent incubation, coverslips were washed three times with PBS-BSA 0.2%, twice with distilled water, mounted with 20% Mowiol in PBS and analysed on a Axiophot microscope (Carl Zeiss).
Fluorescence photographs were taken either on T-Max 400 or EPH P1600X film (Eastman Kodak) using Zeiss 40 and 100 neofluar lenses.
In certain experiments cells were overnight pretreated with antibodies or PT or inhibitors.
Finally, to determine whether the observed effects of HMGB1 on RSMC actually reflect a dynamic transition from resting to motile states, the proportion of cells in each different state was quantified.

RSMC [2] = test: Chemotaxis assay, modified Boyden chambers, RSMC
Method: Chemotaxis assays were performed using well-known protocols (Degryse et al., 1999, Blood, 94: 649-662).
Modified Boyden chambers were used with filters having 0.5 Am pore size (Corning, Acton, Mass.) and. treated with collagen I (100 Ug/ml in 0.5 M acetic acid) e fibronectin (10 IIg/ml) (Roche). RSMC cells (kind gift of Dr. Marco Bertulli, Bayer Research Laboratories, Milan) were cultured in DMEM serum-free and a sample of 20.000-40.000 cells was added to the upper well of Boyden. chamber. The molecules to be tested were diluted in the same serum-free medium and added to the lower well.
Different HMGB1 preparations were used: HMGB1 purified from calf thymus (kind gift of J. Bernues, C.S.I.C., Barcelona, Spain), E. coli expressed […], and a lightly modified HMGB1 form (containing EAEAYVEF aminoacids bound to the Nterminus) produced in yeast Pichia pastoris (Mistry et al., 1997, Biotechniques, 22: 718-729).
If necessary, the polyclonal rabbit anti-HMGB1 (Pharmingen B D, Torrey Pines, Calif.), the pertussis toxin (PT) from Bordetella pertussis (kind gift of Dr. M. G. Pizza, I.R.I.S., Siena) or the inhibitors were added in both wells.
Overnight cell migration was allowed at 37 C, then cells remaining on the upper surface of filters were scraped off and filters were fixed in methanol and stained in a solution of 10% crystal violet in 20% methanol. All experiments were performed at least twice in triplicate.
Results, as shown in FIGS. 1-A, 1-B, 1-C, 1-D, are the mean±SD of the number of cells counted in 10 high power fields per filter and expressed as fold over control. To random cell migration (i.e., migration in the absence of chemoattractant) was given the arbitrary value of 100%.
Statistical analysis was performed using Student's t test for pairwise comparisons of treatments, or an ANOVA model for the evaluation of treatments with increasing doses of a reagent.
Knowing that many chemoattractants act via membrane receptors associated to heterotrimeric GTP binding proteins (G proteins), whether G proteins could be implicated in HMGB1 signaling was tested. […] RSMC were pre-treated with PT or with mPT (50 ng/ml) for 6 hours, thus stimulated with HMGB1 (100 ng/ml), Box A or Box B (10 ng/ml) for 30 minutes.
Chemotaxis assays were performed as previously described. The data represent the mean±SD and the value of 100% corresponds to basal migration in the absence of any stimulator.

phosphorylated ERK1/2 = test: ERK1/2 phosphorylation and nuclear translocation in RSMC (immunostaining); set-up: inhibition of HMGB1-induced ERK phosphorylation and nuclear translocation: dose or concentration left out as unconfirmed
Method: Afterwards, whether the HMGB1-induced signaling involves the MAP kinase pathway, was investigated; in fact, it is known that these proteins are activated by RAGE, and they have a direct role in the regulation of the intracellular motility machinery. RSMC were pretreated with PD98059 ([…]) for one hour or were not pre-treated, stimulated for 30 minutes with HMGB1 from calf thymus (100 ng/ml) and stained with specific antibodies against phosphorylated ERK1/2 (New England Biolabs, Beverly, Mass.) and DAPI. A separate sample of cells was stained with TRITC-phalloidin to visualize the reorganization of cytoskeleton. […] Moreover, PD98059, the selective inhibitor of MEK, the upstream regulator of ERK, inhibits HMGB1-induced ERK phosphorylation and. nuclear translocation, as well as RSMC migration and cytoskeleton reorganization.

[3] = system: Mouse embryonic fibroblasts; test: Chemotaxis assay on fibroblasts, modified Boyden chambers
Method: Chemotaxis assays were performed using well-know protocols (Degryse et al., 1999, Blood, 94:64. 9-662). Modified Boyden chambers were used with filters having 0.5 ym pore size (Corning, Acton, Mass.) and treated with collagen I (100 pg/ml in 0.5 M acetic acid) and fibronectin (10 IIg/ml) (Roche). Mouse embryonic fibroblasts were cultured following well-known protocols (Calogero et al., 1999, Nat. Genet., 22: 276280) and after 24 hours of serum starvation, a sample of 20.000-40.000 cells was added to the upper well of Boyden. chamber. E. Coli expressed recombinant-HMGB1 was diluted in the same serum-free medium and added to the lower well. Anti-RAGE antibodies (1000 ng/ml) (kind gift of Dr. A. M. Schimdt, Columbia University, NY) were added in both wells.
Overnight cell migration. was allowed at 37 C, then cells remaining on the upper surface of filters were scraped off and filters were fixed in methanol and stained in a solution of 10% crystal violet in 20% methanol. All experiments were performed at least twice in triplicate.
Results, as shown in FIG. 10 are the mean W SD of the number of cells counted in 10 high power fields per filter and expressed as fold over untreated control. To random cell migration (i.e. migration in absence of chemoattractant) was given the arbitrary value of 100%.
Statistical analysis was performed using an ANOVA model for the evaluation of treatments with increasing doses of a reagent. […] Anti RAGE antibodies (1000 ng/ml) totally block the migratory response (right side of the graphic of FIG. 10) showing that this is specifically due to HMGB1.

[4] = HMGB1 100 ng/ml, one hour after stimulation

COc1cccc(-c2cc(=O)c3ccccc3o2)c1N [PD98059, reference compound]
inhibition of HMGB1-induced cytoskeletal reorganization and morphological change of RSMC (RSMC [1]; cells pretreated with antibodies, PT or inhibitors): inhibits | inhibition of HMGB1-induced RSMC migration (RSMC [2]; inhibitor in both wells or pre-treatment, HMGB1 as chemoattractant): inhibits | inhibition of HMGB1-induced ERK phosphorylation and nuclear translocation (phosphorylated ERK1/2; pretreated with PD98059 for one hour): inhibits

B1: HMGB1 from calf thymus: HMGB1 purified from calf thymus (protein, UniProt P10103 2-215, looked up)
High mobility group protein B1: GKGDPKKPRGKMSSYAFFVQTCREEHKKKHPDASVNFSEFSKKCSERWKTMSAKEKGKFEDMAKADKARYEREMKTYIPPKGETKKKFKDPNAPKRPPSAFFLFCSEYRPKIKGEHPGLSIGDVAKKLGEMWNNTAADDKQPYEKKAAKLKEKYEKDIAAYRAKGKPDAAKKGVVKAEKSKKKKEEEEDEEDEEDEEEEEDEEDEEEEEDDDDE
maximal migratory response of RSMC (RSMC [2]; at 100 ng/ml, random cell migration = 100%): 2.5 fold | lowest dose stimulating migration of RSMC (RSMC [2]; concentration-dependent, overnight migration): 0.1 ng/mL

B2: E. Coli expressed recombinant-HMGB1: full-length HMGB1 expressed in E. Coli transformed with pT7-7-rHMGlcm plasmid (protein, UniProt P09429 1-215, looked up)
chain: MGKGDPKKPRGKMSSYAFFVQTCREEHKKKHPDASVNFSEFSKKCSERWKTMSAKEKGKFEDMAKADKARYEREMKTYIPPKGETKKKFKDPNAPKRPPSAFFLFCSEYRPKIKGEHPGLSIGDVAKKLGEMWNNTAADDKQPYEKKAAKLKEKYEKDIAAYRAKGKPDAAKKGVVKAEKSKKKKEEEEDEEDEEDEEEEEDEEDEDEEEDDDDE
modifications: full-length expressed in E. coli
notes: full-length HMGB1 expressed in E. Coli transformed with pT7-7-rHMGlcm plasmid
dose giving maximal migratory response of fibroblasts [3]: 100 ng/mL | migratory response of fibroblasts at higher doses ([3]; 1000 ng/ml): lower than the control | lowest dose stimulating fibroblasts migration ([3]; concentration-dependent): 0.1 ng/mL

B3: HMGB1: HMGB1 protein, 25-kD, 215 amino acids, two HMG boxes and acidic COOH terminus; preparation not specified at the place (protein, UniProt P09429 1-215, looked up)
High mobility group protein B1: MGKGDPKKPRGKMSSYAFFVQTCREEHKKKHPDASVNFSEFSKKCSERWKTMSAKEKGKFEDMAKADKARYEREMKTYIPPKGETKKKFKDPNAPKRPPSAFFLFCSEYRPKIKGEHPGLSIGDVAKKLGEMWNNTAADDKQPYEKKAAKLKEKYEKDIAAYRAKGKPDAAKKGVVKAEKSKKKKEEEEDEEDEEDEEEEEDEEDEDEEEDDDDE
proportion of cells in state 2 (RSMC [1]; HMGB1 100 ng/ml, after 15-30 minutes): 80% | proportion of cells in state 1 (RSMC [1]; [4]): 60% | proportion of cells in state 2 (RSMC [1]; [4]): 40% | change of RSMC morphology and cytoskeleton organization (RSMC [1]; HMGB1 100 ng/ml, within 15-30 minutes): complete change of morphology and cytoskeleton organization | proportion of cells in state 2 (RSMC [1]; HMGB1 100 ng/ml, within 5 minutes after stimulation): 60% | chemotactic effect on RSMC (in words) (RSMC [2]; overnight migration, serum-free medium): comparable in amplitude to the effects of the well characterised attractants fMLP and bFGF | activation and nuclear translocation of ERK1/2 in RSMC (phosphorylated ERK1/2; HMGB1 from calf thymus 100 ng/ml, within 30 minutes): induces the activation of ERK1/2 proteins
